Target: the molecule itself
Assay: bead aggregation assay

B1: hTMIGD1-Fc (extracellular domain of hTMIGD1, AA 1-222, fused to the Fc-part of human IgG) (Fc fusion)
chain: VLTVNGKTENYILDTTPGSQASLICAVQNHTREEELLWYREEGRVDLKSGNKINSSSVCVSSISENDNGISFTCRLGRDQSVSVSVVLNVTFPPLLSGNDFQTVEEGSNVKLVCNVKANPQAQMMWYKNSSLLDLEKSRHQIQQTSESFQLSITKVEKPDNGTYSCIAKSSLKTESLDFHLIVKDKTVGVPIE
Question: Does B1 bind?
Answer: binds

— publication doi:10.1101/2021.01.25.428038 (bioRxiv, 2021)
